B1: Microtubule-associated protein 4: PKGIα substrate, phospho site T899 (protein, UniProt Q5M7W5 2-1057, looked up)
Microtubule-associated …: ADLSLVDALTEPPPEIEGEIKRDFMAALEAEPYDDIVGETVEKTEFIPLLDGDEKSGNSESKRKPCVDTSQVEDIPSSKPTLLANGDHGVEGNNTTGSPTDFLVENVDYEDYQNSQSWPEDASFCFQPQQVLDTNQADPFNVHHDDGLADLLFVSSGPTNASAFIEENNPLEDSYGVLPCDSFAPTAVVSQEWSVGAPDSPHSEPCVSPEVTIETAQPATELSKAVDLESVKEQLPAKALEMMAGQTTDAVPSKESEGSPDTDAAPGPDTDVTLTKDIEESSSPDVISANVTQPFTESDMFLTQEMELLIGTEAAQVKDTMSSVEPDISSAKNTAPPTEEETVPGKDMTFPKEAETALPIEMDLAPPEDVALPKETELELAPAAGTAPLSETEVALAKDEEPSTGIPAAQEMLLSSETEVVLPSDSIMTLTKEVTVPLEAAGPLVSDMTAILETEMTLGGGTATPTETKLGKVKDMAPLPESEVALGKDVVTLPETKVTEFNNVTPLSEEEVASIKDVSPSPETETAKNADLHSGTELTLDNSMTPPSDPALPLETKVATVQIKDKETVQTQEELSEDSQLESVQLEGQSAVPPCTISPEPVKAADQKSTLPVDEGSPLEKLEQKETSGSQPPELCSGVSRQEEGKAAVGLTGNDIATPPNKELPPSPEKKAKPLATTQPAKTSTSKAKIQPTSLPKQPAPTTSGGLNKKPMSLASGSVPAAPHKRPAAATATARPSTLPARDLKPKPITETKVAEKRTSPSKPSSAPALRPGPKTTPTISKATSPSTLVSTGSSSRSPSTTLPKRPTTTKTEGKPADVKRMTAKSATADLSRSKTTSASSVKRNTTPTGATPPAGMASTRVKPMSAPCRSSVALSVDKKPTSTKPSSSAPRVSRLATTVSAPDLKSVRSKVGSTENMKHQPGGGRVQIQNKKVDISKVSSKCGSKANIKHKPGGGDVKIESQKLNFKEKAQAKVGSLDNVGHLPAGGTVKTEGGGSEAPPCPGPPAGEEPAIPEAAPDAGAPTSASGLSGHTTLSGGGDQREPQTLDSQIQETSI
modifications: phosphorylated at T899
B2: Mitochondrial ribonuclease P protein 1: PKGIα substrate, phospho site T377 (protein, UniProt Q5U2R4 36-414, looked up)
tRNA methyltransferase 10 …: VSSKVPSLPCHNKDSTSPPEQLELDGWKTTMKSSIQENGVSVVSDKDEDSLAATRELIEMWRLLGKEVPEHITEEELKTLMECASKSAKKKYLRYLYGKEMMKKAKQMKKEMKAAAREEAKRARSLEPSTGEEQRDFMFLRLWDRQTNIALGWKGVQAMQFGQPLVFDMAYDNYMKPSELQNTVSQLLESEGWNRRNVDPFHIYFCNLEVDGAYHRELVKRYGEKWDKLLLTATEKSPVDLFPKDSIIYLTADSPNVMTTFKHDKIYIIGSFVDKNTQTGTSLAKAKRQNLATECLPLDKYLQWDVGNKNLTLDQMIRILLCLKNTGNWEEALKFVPRRKHTGYLEVPEHSQAAFRKLKKTKTLNSFRKGSLNVHMWKR
modifications: phosphorylated at T377
B3: Matrin-3: PKGIα substrate, phospho site T150 (protein, UniProt P43244 2-845, looked up)
Matrin-3: SKSFQQSSLGRDSQGHGRDLSAAGIGLLAAATQSLSMPASLGRMNQGTARLASLMNLGMSSSLNQQGAHSALSSASTSSHNLQSIFNIGSRGPLPLSSQHRGDTDQASNILASFGLSARDLDELSRYPEDKITPENLPQILLQLKRRRTEEGPTLSYGRDGRSATREPPYRVPRDDWEEKRHFRRDSFDDRGPSLNPVLDYDHGSRSQESGYYDRMDYEDDRLRDGERCRDDSFFGETSHNYHKFDSEYERMGRGPGPLQERSLFEKKRGAPPSSNIEDFHGLLPKGYPHLCSICDLPVHSNKEWSQHINGASHSRRCQLLLEIYPEWNPDNDTGHTMGDPFMLQQSTNPAPGILGPPPPSFHLGGPAVGPRGNLGAGNGNLQGPRHMQKGRVETSRVVHIMDFQRGKNLRYQLLQLVEPFGVISNHLILNKINEAFIEMATTEDAQAAVDYYTTTPALVFGKPVRVHLSQKYKRIKKPEGKPDEKFDQKQELGRVIHLSNLPHSGYSDSAVLKLAEPYGKIKNYILMRMKSQAFIEMETREDAMAMVDHCLKKALWFQGRCVKVDLSEKYKKLVLRIPNRGIDLLKKDKSRKRSYSPDGKESPSDKKSKTDGAQKTENPAEGKEQEEKSGEDGEKDTKDDQTEQEPSMLLESEDELLVDEEEAAALIESGSSVGDETDLANLGDVSSDGKKEPSDKAVKKDASATSKKKLKKVDKIEELDQENEAALENGIKNEENTEPGAESAENADDPNKDASDNSDGQNDENKEDYTIPDEYRIGPYQPNVPGGIDYVIPKTGFYCKLCSLFYTNEEVAKNTHCSSLPHYQKLKKFLNKLAEERRQKKES
modifications: phosphorylated at T150
B4: Leucine-rich PPR motif-containing protein, mitochondrial: PKGIα substrate, phospho site S656 (protein, UniProt Q5SGE0 78-1392, looked up)
Leucine-rich PPR …: SGSQFDWALMRLDNSVRRTGRITKGLLQKVFESTCRSGSPGSNQALLLLRSCGSLLPELSLAERTEFAHKIWDKLQQLGTVYDVSHYNALLKVYLQNEYRFSPTDFLAKMEGANIQPNRVTYQRLIAAYCSVGDIEGASKILGFMKTRDLPITEAVFSALVTGHARAGDMESAENILTVMKQAGIEPGPDTYLALLNAHAEKGDIDHVKQILEKVEKSDHYFMDRDFLQIIVSFSKAGYPQYVSEILEKITYERRSIPDAMNLILLLVTEKLEDTAFQVLLALPLARDETSSSFGSFFLRHCVTMDTPAEKLIDYCKRLRDAKVHSSSLQFTLHCALQANKTALAKAVMEALRDEGFPIRTHYFWPLLVGHQKTKNVQGIIDILKIMKEMGVDPDQETYINYVFPCFGSVQSARAALQENKCLPKSTTFAQAEVRNEAINGNLQNILSFLESNALPFSFNSLRGSLILGFRRSMNIDLWSKITELLYKDDRYCQKPPGPTEAVGYFLYNLIDSMSDSEVQAKEERLRQYFHQLREMNVKVSENIYKGICNLLDNYHVPELIKDVKVLVDREKIDSRKTSQFTSSDLESTLEKLKAEGHPVGDPLKQLILLLCSEENMQKALEVKAKYESDMVIGGYAALINLCCRHDNAEDALNLKQEFDRLDPSAVLDTAKYVALVKVLGKHGRVQDAINILKEMKEKDVVIKDAAVLSFFHILNGAALRGEIETVKQLHEAIVTLGLAKPSSNISFPLVTVHLEKDDLPAALEASIACHEKYKVLPRIHDVLCKLIEKGETDLIQKAMDFVSQEQGEMSMLYDLFFAFLQTGNYKEAKKIIETPGIRARPTRLQWFCDRCIANNQVETLEKLVELTEKLFECDRDQMYYNLLKLYKISGDWQRADAVWNKMQEENLIPRERTLRLLAGILKTSNQEVPFDVPELWFGDDRSSLSSSSPSAGDTVTEKMLLSDCRLKKSKDAYNIFLKAEKQDVVFSSEAYSTLVGLLLSKDDFTRAMHVKDFAETHIKGFTLNGAASSLLIIAQVRRDYLKVALETLKAALDLEQVPSELAVTRLIQALALQGDVKSIETIQKMVKGLDAIELSRMVFINNIALAQMKNNEIDAAIENIEHMLASENQTVEHQYFGLSYLFRKVIEEQMEPALEKLSIMSERLANQFALYKPVTDLFLQLVDSGKVDEARALLERCGAIAEQTSILSVFCLRTSQKPKKAPVLKTLLELIPELRENDRVYSCSMKSYVADKDVASAKALYEHLTAKNMKLDDLFLKRYASLLKDVGEPVPFTEPPESFGFYIKQLKEARENPS
modifications: phosphorylated at S656

Key:
[1] = system: PKGIα (analogue-sensitive C42S/M438G), cGMP-activated; experiment: Chemical genetic phosphoproteomic screen, cGMP-activated PKGIα C42S/M438G versus unactivated control; type: biochemical, human PKGIα; substrates in rat heart homogenate; details: PKGIα C42S/M438G + 100 μM cGMP vs basal; 1 h, 30 °C, pH 7.5, rat heart homogenate; label-free LC–MS/MS; n=4; * P<0.05 Dunnett: all values except phospholamban S16
Excerpt: (§1) We employed a chemical genetic method[18] to identify direct substrates of cGMP-activated PKGIα and disulfide bond-activated PKGIα in heart tissue. This method involves mutation of the ATP binding-site of the kinase of interest so that it can accept a ‘bulky' N6-alkylated ATP analogue for example, N6^−phenylethyl ATP. An oxygen atom on the γ phosphate is also replaced with a sulfur atom—giving an N6-alkylated ATPγS analogue—so that the mutant kinase catalyses the transfer of a thiophosphate group (–PO3S^3−) to its substrates instead of a phosphate. The thiophosphate group is nucleophilic, providing a basis for substrates of the analogue-sensitive kinase to be purified by a ‘covalent capture' protocol. LC–MS/MS allows identification of the substrate and localization of the phosphorylation site. Thiophosphorylated proteins can also be detected with a thiophosphate ester-specific antibody. Analogue-sensitive mutants of PKGIα and PKGIα C42S (which cannot form the activating intermolecular disulfide bond) were generated by mutating Met438 in the ATP-binding domain to Gly. This mutation was chosen based on a previous study where an analogue-sensitive mutant of the catalytic subunit of PKA—which shares sequence homology with PKGIα—was engineered. Detailed protocols are given below.
(§2) A pCDNA3 expression vector encoding human FLAG-tagged PKGIα (ref. [41]) underwent site-directed mutagenesis to generate constructs for untagged WT, C42S, M438G and C42S/M438G PKGIα. Mutations were introduced using the QuikChange II Site-Directed Mutagenesis Kit (Agilent) according to the manufacturer's instructions. Expression and purification of the PKGIα mutants was performed according to a published method[42] as follows: suspension FreeStyle 293-F cells (ThermoFisher Scientific) were transfected with the appropriate PKGIα construct using the stable cationic polymer polyethyleneimine (PEI) as a transfection reagent. After ∼72 h cells were harvested by centrifugation (400g; room temperature; 15 min), re-suspended in ice cold lysis buffer (25 mM sodium phosphate buffer pH 6.8; 10 mM ethylenediaminetetraacetic acid (EDTA); 100 mM NaCl; 10 mM benzamidine hydrochloride; and 10 mM dithiothreitol (DTT)) and frozen in liquid N2. Cells were lysed by three freeze (liquid N2)-thaw (37 °C) cycles and the lysate was clarified by centrifugation at 140,000g and 4 °C for 30 min. The soluble protein fraction was loaded onto a pre-equilibrated 8-(2-aminoethylamino)adenosine-3′, 5′-cyclic monophosphate column (8-AEA-cAMP agarose; BioLog, Germany) followed by washing with 20 column volumes of lysis buffer. The column was further washed with lysis buffer +3 M NaCl (5 column volumes) and PKGIα was then eluted with lysis buffer +150 mM NaCl and 500 μM cAMP. Removal of cAMP and buffer exchange was achieved by extensive dialysis against 25 mM sodium phosphate buffer pH 6.8, 2 mM EDTA and 100 mM NaCl. For ITC analysis, WT PKGIα was incubated with 10 mM lipoic acid for 2 h on ice to obtain ∼100% disulfide dimer (confirmed by SDS-PAGE). Oxidized WT or C42S PKGIα was further purified by size exclusion chromatography using a HiLoad 16/600 Superdex 200 pg column (GE Healthcare) with 50 mM sodium phosphate buffer pH 7.4 and 100 mM NaCl. Proteins were concentrated using Amicon Ultra centrifugal filter devices (Merck Millipore). DTT was absent in storage buffers so that the activating disulfide bond would not be reduced and so that the PKGIα M438G mutant would be oxidized to disulfide dimer in the presence of air (confirmed by SDS-PAGE). Protein concentration was determined by Pierce BCA assay (ThermoFisher) and enzyme activity was confirmed using the Omnia kinase assay kit (ThermoFisher).
(§3) Male Wistar rats (9–10 weeks; body weight 300–330 g) were euthanized by intraperitoneal injection of sodium pentobarbitone (200 mg kg^−1) with heparin (500 USP units). […]

[2] = system: PKGIα (analogue-sensitive M438G), disulfide-activated; experiment: Chemical genetic phosphoproteomic screen, disulfide-activated PKGIα M438G versus unactivated control; type: biochemical, human PKGIα; substrates in rat heart homogenate; details: disulfide-activated PKGIα M438G vs basal; 1 h, 30 °C, pH 7.5, rat heart homogenate; label-free LC–MS/MS; n=4; * P<0.05 Dunnett: only phospholamban S16
Excerpt: as §1, §2, §3

| Molecule | Log2 fold change in phosphorylation, cGMP versus control [1] | Log2 fold change in phosphorylation, Disulfide versus control [2] |
| --- | --- | --- |
| B1 | 3.69* | 1.73 |
| B2 | 1.98* | 0.45 |
| B3 | 3.58* | 1.38 |
| B4 | 4.57* | 0.77 |

— paper PMC5095173, “Disulfide-activated protein kinase G Iα regulates cardiac diastolic relaxation and fine-tunes the Frank–Starling response” (Nature Communications, 2016)
